The values below are quoted from earlier work in paper PMC6723671.

In general, Kd refers to the equilibrium constant for the complex coming apart.

For this data set, the target named is CD150 (SLAM) ECD (Homo sapiens) (UniProt Q13291).

In the case of CD150 (SLAM) ECD (from UniProt Q13291), the Kd was > 200 µM.
